Measurements as given in the supplement of paper PMC10567573.

B1: ANKRD17 (parent)
chain: EVLRRLTSSVSCALDEAAAALTRM

Variants of: B1
Assay: protein stability index of a GFP-peptide fusion (GPS, HEK-293T) (PSI 1-6); higher = more stable
Conditions: c terminus: a fixed tail appended
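Also: lentivirally expressed fusions sorted by FACS into six bins by GFP to DsRed ratio, PSI derived from sequencing read proportions per bin multiplied by bin number.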

Variant	protein stability index
EVLRRLTSSVSCALDEAATALTRM [A19T]	2.29
EVLRRLTSSVSCALDEAAIALTRM [A19I]	1.88
EVLRRLTSSVSCALDEAAHALTRM [A19H]	1.78
EVLRRLTSSVSCALDEAASALTRM [A19S]	2.16
EVLRRLTSSVSCALDEAADALTRM [A19D]	1.83
EVLRRLTSSVSCALDEAALALTRM [A19L]	2.35
EVLRRLTSSVSCALDEAAPALTRM [A19P]	2.25
EVLRRLTSSVSCALDEAAFALTRM [A19F]	3.41
EVLRRLTSSVSCALDEAAYALTRM [A19Y]	2.92
EVLRRLTSSVSCALDEAANALTRM [A19N]	2.55
EVLRRLTSSVSCALDEAAAALTNM [R23N]	1.35
EVLRRLTSSVSCALDEAAAALTMM [R23M]	1.59
EVLRRLTSSVSCALDEAAAALTWM [R23W]	3.5
EVLRRLTSSVSCALDEAAAALTIM [R23I]	1.92
EVLRRLTSSVSCALDEAAAALTKM [R23K]	1.21
EVLRRLTSSVSCALDEAAAALTAM [R23A]	2.91
EVLRRLTSSVSCALDEAAAALTEM [R23E]	2.64
EVLRRLTSSVSCALDEAAAALTHM [R23H]	1.95
EVLRRLTSSVSCALDEAAAALTQM [R23Q]	1.74
EVLRRLTSSVSCALDEAAAALTFM [R23F]	4.05
EVLRRLTSSVSCALDEAAAALTDM [R23D]	2.8
EVLRRLTSSVSCALDEAAAALTPM [R23P]	2.15
EVLRRLTSSVSCALDEAAAALTVM [R23V]	1.02
EVLRRLTSSVSCALDEAAAALTSM [R23S]	1.93

Variant	protein stability index
EVLRRLTSSVSCALDEAAAALTGM [R23G]	2.35
EVLRRLTSSVSCALDEAAAALTRY [M24Y]	1.43
EVLRRLTSSVSCALDEAAAALTRL [M24L]	2.81
EVLRRLTSSVSCALDEAAAALTRD [M24D]	1.43
EVLRRLTSSVSCALDEAAAALTRQ [M24Q]	2.2
EVLRRLTSSVSCALDEAAAALTRI [M24I]	2.08
EVLRRLTSSVSCALDEAAAALTRV [M24V]	1.07
EVLRRLTSSVSCALDEAAAALTRS [M24S]	2.42
EVLRRLTSSVSCALDEAAAALTRT [M24T]	3.53
EVLRRLTSSVSCALDEAAAALTRN [M24N]	1.65
EVLRRLTSSVSCALDEAAAALTRF [M24F]	2.44
EVLRRLTSSVSCALDEAAAALTRW [M24W]	3.27
EVLRRLTSSVSCALDEAAAALTRC [M24C]	2.33
EVLRRLTSSVSCALDEAAAALTRH [M24H]	2.49
EVLRRLTSSVSCALDEAAAALTRR [M24R]	2.72
EVLRRLTSSVSCALDEAAAMLTRM [A20M]	2.28
EVLRRLTSSVSCALDEAAAHLTRM [A20H]	1.52
EVLRRLTSSVSCALDEAAAELTRM [A20E]	3.31
EVLRRLTSSVSCALDEAAACLTRM [A20C]	2.73
EVLRRLTSSVSCALDEAAALLTRM [A20L]	1.45
EVLRRLTSSVSCALDEAAANLTRM [A20N]	3.01
EVLRRLTSSVSCALDEAAAKLTRM [A20K]	2.69
EVLRRLTSSVSCALDEAAARLTRM [A20R]	2.64
EVLRRLTSSVSCALDEAAAFLTRM [A20F]	1.65

Variant	protein stability index
EVLRRLTSSVSCALDEAAAQLTRM [A20Q]	3.08
EVLRRLTSSVSCALDEAAAVLTRM [A20V]	1.91
EVLRRLTSSVSCALDEAAADLTRM [A20D]	1.65
EVLRRLTSSVSCALDEAAAILTRM [A20I]	2.52
EVLRRLTSSVSCALDEAAAWLTRM [A20W]	2.48
EVLRRLTSSVSCALDEAAAYLTRM [A20Y]	3.13
EVLRRLTSSVSCALDEANAALTRM [A18N]	1.8
EVLRRLTSSVSCALDEAGAALTRM [A18G]	1.85
EVLRRLTSSVSCALDEAHAALTRM [A18H]	1.68
EVLRRLTSSVSCALDEAKAALTRM [A18K]	2.92
EVLRRLTSSVSCALDEAYAALTRM [A18Y]	1.69
EVLRRLTSSVSCALDEAMAALTRM [A18M]	2.25
EVLRRLTSSVSCALDEAQAALTRM [A18Q]	2.4
EVLRRLTSSVSCALDEAIAALTRM [A18I]	2.33
EVLRRLTSSVSCALDEALAALTRM [A18L]	1.68
EVLRRLTSSVSCALDEAWAALTRM [A18W]	1.64
EVLRRLTSSVSCALDEARAALTRM [A18R]	2.43
EVLRRLTSSVSCALDEATAALTRM [A18T]	2.27
EVLRRLTSSVSCALDEAVAALTRM [A18V]	1.8
EVLRRLTSSVSCALDEAPAALTRM [A18P]	2.72
EVLRRLTSSVSCALDEAAAAITRM [L21I]	1.93
EVLRRLTSSVSCALDEAAAAMTRM [L21M]	1.5
EVLRRLTSSVSCALDEAAAAHTRM [L21H]	1.89
EVLRRLTSSVSCALDEAAAACTRM [L21C]	1.18

Variant	protein stability index
EVLRRLTSSVSCALDEAAAADTRM [L21D]	1.53
EVLRRLTSSVSCALDEAAAAWTRM [L21W]	1.6
EVLRRLTSSVSCALDEAAAAVTRM [L21V]	2.04
EVLRRLTSSVSCALDEAAAANTRM [L21N]	3.47
EVLRRLTSSVSCALDEAAAAFTRM [L21F]	1.65
EVLRRLTSSVSCALDEAAAARTRM [L21R]	5.02
EVLRRLTSSVSCALDEAAAALPRM [T22P]	2.33
EVLRRLTSSVSCALDEAAAALCRM [T22C]	2.1
EVLRRLTSSVSCALDEAAAALARM [T22A]	1.94
EVLRRLTSSVSCALDEAAAALRRM [T22R]	1.31
EVLRRLTSSVSCALDEAAAALHRM [T22H]	3.03
EVLRRLTSSVSCALDEAAAALMRM [T22M]	2.39
EVLRRLTSSVSCALDEAAAALKRM [T22K]	1.86
EVLRRLTSSVSCALDEAAAALVRM [T22V]	1.24
EVLRRLTSSVSCALDEAAAALQRM [T22Q]	3
EVLRRLTSSVSCALDEAAAALNRM [T22N]	1.93
EVLRRLTSSVSCALDEAAAALWRM [T22W]	1.46
EVLRRLTSSVSCALDEAAAALYRM [T22Y]	1.85
EVLRRLTSSVSCALDEAAAALFRM [T22F]	2.21
EVLRRLTSSVSCALDEAAAALDRM [T22D]	2.22
EVLRRLTSSVSCALDEAAAALERM [T22E]	2.06
EVLRRLTSSVSCALDEAAAALIRM [T22I]	2.36
